Positions count from the first letter of the chain named.
Experiments:
[1] = biological target: T1, PCBP2 (poly(C)-binding protein 2, hnRNP E2) (UniProt Q15366 1-365); assay: EMSA; 4 °C 25 min, 2.5 mM Mg2+, yeast tRNA and BSA; EMSA: 25 mM NaH2PO4 pH 8.0, 50 mM NaCl, 25 mM KCl, 2.5 mM MgCl2, 10 mM imidazole, 0.5 mM DTT, 0.5 mM PMSF, 7% glycerol, 0.5 U/uL RNasin, 75 ng/uL BSA, 100 ng/uL yeast tRNA; 4 °C 25 min (also 25 °C 15 min, 37 °C 10 min); conditions: protein: recombinant; label: 5'-32P (EMSA); hairpins G56-C169 and U180-A218
T1 sequence (Q15366 whole entry): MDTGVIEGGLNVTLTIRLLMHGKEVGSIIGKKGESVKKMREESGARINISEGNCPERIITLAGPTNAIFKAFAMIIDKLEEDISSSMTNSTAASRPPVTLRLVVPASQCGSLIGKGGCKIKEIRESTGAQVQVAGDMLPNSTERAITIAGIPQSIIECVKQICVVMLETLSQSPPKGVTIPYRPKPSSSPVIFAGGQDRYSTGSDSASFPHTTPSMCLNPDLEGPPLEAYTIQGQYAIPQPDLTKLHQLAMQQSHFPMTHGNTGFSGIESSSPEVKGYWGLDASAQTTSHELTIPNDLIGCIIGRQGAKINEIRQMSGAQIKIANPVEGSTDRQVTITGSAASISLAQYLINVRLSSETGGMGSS

[2] = biological target: T1, PCBP2 (poly(C)-binding protein 2, hnRNP …); assay: EMSA; 4 °C 25 min, 2.5 mM Mg2+; additional intermediate complexes; text also reports decreased binding ability at fixed protein (Fig 3c); EMSA: 25 mM NaH2PO4 pH 8.0, 50 mM NaCl, 25 mM KCl, 2.5 mM MgCl2, 10 mM imidazole, 0.5 mM DTT, 0.5 mM PMSF, 7% glycerol, 0.5 U/uL RNasin, 75 ng/uL BSA, 100 ng/uL yeast tRNA; 4 °C 25 min (also 25 °C 15 min, 37 °C 10 min); conditions: protein: recombinant; label: 5'-32P; shortened hairpin; C74-G144 pair replaces U57-G168
[3] = biological target: T1, PCBP2 (poly(C)-binding protein 2, hnRNP …); assay: EMSA; no complex at 4-4000 nM; smeared shift at 5 and 10 uM; EMSA: 25 mM NaH2PO4 pH 8.0, 50 mM NaCl, 25 mM KCl, 2.5 mM MgCl2, 10 mM imidazole, 0.5 mM DTT, 0.5 mM PMSF, 7% glycerol, 0.5 U/uL RNasin, 75 ng/uL BSA, 100 ng/uL yeast tRNA; 4 °C 25 min (also 25 °C 15 min, 37 °C 10 min); conditions: protein: recombinant; label: 5'-32P; hairpin
[4] = biological target: T1, PCBP2 (poly(C)-binding protein 2, hnRNP …); assay: EMSA; 1000 and 2500 nM PCBP2, 4 °C; no change vs P1-Δ40p53; EMSA: 25 mM NaH2PO4 pH 8.0, 50 mM NaCl, 25 mM KCl, 2.5 mM MgCl2, 10 mM imidazole, 0.5 mM DTT, 0.5 mM PMSF, 7% glycerol, 0.5 U/uL RNasin, 75 ng/uL BSA, 100 ng/uL yeast tRNA; 4 °C 25 min (also 25 °C 15 min, 37 °C 10 min); conditions: protein: recombinant, label: 5'-32P

B1: P1-Δ40p53 RNA (structured_RNA)
RNA: GGCUAGAGCCACCGUCCAGGGAGCAGGUAGCUGCUGGGCUCCGGGGACACUUUGCGUUCGGGCUGGGAGCGUGCUUUCCACGACGGUGACACGCUUCCCUGGAUUGGCAGCCAGACUGCCUUCCGGGUCACUGCCAUGGAGGAGCCGCAGUCAGAUCCUAGCGUCGAGCCCCCUCUGAGUCAGGAAACAUUUUCAGACCUAUGGAAACUACUUCCUGAAAACAACGUUCUGUCCCCCUUGCCGUCCCAAGCAAUG
Kd [1]: 95 ± 6 nM

B2: P1-Δ40p53(Δ57) RNA (structured_RNA)
RNA: GGCUAGAGCCACCGUCCAGGGAGCAGGUAGCUGCUGGGCUCCGGGGACACUUUGCGCUUUCCACGACGGUGACACGCUUCCCGGUCACUGCCAUGGAGGAGCCCCCUCUGAGUCAGGAAACAUUUUCAGACCUAUGGAAACUACUUCCUGAAAACAACGUUCUGUCCCCCUUGCCGUCCCAAGCAAUG
Kd [2]: 53 ± 6 nM

B3: isolated hairpin G56-C169 RNA (structured_RNA)
RNA: GUUCGGGCUGGGAGCGUGCUUUCCACGACGGUGACACGCUUCCCUGGAUUGGCAGCCAGACUGCCUUCCGGGUCACUGCCAUGGAGGAGCCGCAGUCAGAUCCUAGCGUCGAGC
Kd [3]: > 4000 nM

B4: P1-Δ40p53(L) RNA (structured_RNA)
RNA: B1 RNA with U77A, C78A, C79G, A80C
binding result ([4]; AUG1 in internal loop): binds

B5: P1-Δ40p53(S) RNA (structured_RNA)
RNA: B1 RNA with C81U, A83G
binding result ([4]; AUG1 in double-stranded region): binds

— PMC8708005, “Poly(C)-binding Protein 2 Regulates the p53 Expression via Interactions with the 5′-Terminal Region of p53 mRNA”
